Test results from IntAct's records for PubMed 18385733.

B1: Mediator of RNA polymerase II transcription subunit 15 (Saccharomyces cerevisiae), P19659 (parent)
chain: MSAAPVQDKDTLSNAERAKNVNGLLQVLMDINTLNGGSSDTADKIRIHAKNFEAALFAKSSSKKEYMDSMNEKVAVMRNTYNTRKNAVTAAAANNNIKPVEQHHINNLKNSGNSANNMNVNMNLNPQMFLNQQAQARQQVAQQLRNQQQQQQQQQQQQRRQLTPQQQQLVNQMKVAPIPKQLLQRIPNIPPNINTWQQVTALAQQKLLTPQDMEAAKEVYKIHQQLLFKARLQQQQAQAQAQANNNNNGLPQNGNINNNINIPQQQQMQPPNSSANNNPLQQQSSQNTVPNVLNQINQIFSPEEQRSLLQEAIETCKNFEKTQLGSTMTEPVKQSFIRKYINQKALRKIQALRDVKNNNNANNNGSNLQRAQNVPMNIIQQQQQQNTNNNDTIATSATPNAAAFSQQQNASSKLYQMQQQQQAQAQAQAQAQAQAQAQAQAQAAQAAQAQAQAQAQAQAQAQAQAQAQAQAQAQAQAQAQAHAQHQPSQQPQQAQQQPNPLHGLTPTAKDVEVIKQLSLDASKTNLRLTDVTNSLSNEEKEKIKMKLKQGQKLFVQVSNFAPQVYIITKNENFLKEVFQLRIFVKEILEKCAEGIFVVKLDTVDRLIIKYQKYWESMRIQILRRQAILRQQQQMANNNGNPGTTSTGNNNNIATQQNMQQSLQQMQHLQQLKMQQQQQQQQQQQQQQQQQQQQQQQHIYPSSTPGVANYSAMANAPGNNIPYMNHKNTSSMDFLNSMENTPKVPVSAAATPSLNKTINGKVNGRTKSNTIPVTSIPSTNKKLSISNAASQQPTPRSASNTAKSTPNTNPSPLKTQTKNGTPNPNNMKTVQSPMGAQPSYNSAIIENAFRKEELLLKDLEIRKLEISSRFKHRQEIFKDSPMDLFMSTLGDCLGIKDEEMLTSCTIPKAVVDHINGSGKRKPTKAAQRARDQDSIDISIKDNKLVMKSKFNKSNRSYSIALSNVAAIFKGIGGNFKDLSTLVHSSSPSTSSNMDVGNPRKRKASVLEISPQDSIASVLSPDSNIMSDSKKIKVDSPDDPFMTKSGATTSEKQEVTNEAPFLTSGTSSEQFNVWDWNNWTSAT
partner: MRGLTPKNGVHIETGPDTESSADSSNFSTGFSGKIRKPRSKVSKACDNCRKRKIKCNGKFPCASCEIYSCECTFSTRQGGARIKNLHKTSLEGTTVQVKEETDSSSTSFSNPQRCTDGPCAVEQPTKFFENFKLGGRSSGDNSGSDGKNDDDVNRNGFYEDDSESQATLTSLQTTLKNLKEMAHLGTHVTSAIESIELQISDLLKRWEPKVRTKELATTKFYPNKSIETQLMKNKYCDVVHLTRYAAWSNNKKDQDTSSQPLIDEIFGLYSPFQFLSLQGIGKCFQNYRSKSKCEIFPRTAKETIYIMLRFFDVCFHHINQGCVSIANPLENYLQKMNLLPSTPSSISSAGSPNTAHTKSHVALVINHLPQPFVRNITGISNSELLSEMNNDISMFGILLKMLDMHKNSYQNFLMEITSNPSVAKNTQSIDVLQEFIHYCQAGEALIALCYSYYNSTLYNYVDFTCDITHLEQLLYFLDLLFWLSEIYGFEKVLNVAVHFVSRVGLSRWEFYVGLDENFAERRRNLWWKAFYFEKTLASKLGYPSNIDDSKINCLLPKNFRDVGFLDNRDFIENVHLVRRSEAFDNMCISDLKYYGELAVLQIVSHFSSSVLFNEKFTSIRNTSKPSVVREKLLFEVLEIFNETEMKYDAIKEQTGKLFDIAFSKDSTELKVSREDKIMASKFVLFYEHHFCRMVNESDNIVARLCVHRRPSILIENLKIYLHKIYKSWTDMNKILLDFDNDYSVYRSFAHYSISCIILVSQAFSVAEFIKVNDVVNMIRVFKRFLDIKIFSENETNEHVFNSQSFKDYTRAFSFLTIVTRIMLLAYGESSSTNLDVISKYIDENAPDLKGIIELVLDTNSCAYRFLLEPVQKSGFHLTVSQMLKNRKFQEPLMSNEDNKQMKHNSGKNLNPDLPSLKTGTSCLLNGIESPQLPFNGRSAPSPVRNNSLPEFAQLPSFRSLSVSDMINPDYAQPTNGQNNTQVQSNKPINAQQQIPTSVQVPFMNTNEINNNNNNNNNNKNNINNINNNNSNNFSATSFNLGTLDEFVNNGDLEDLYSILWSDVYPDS

Variants of: B1
Conditions: with pdr1_yeast PDR1, P12383
In the case of V27D, the “effect of a mutation on the interaction” value is reported as “disrupting interaction”.
For K63Q, the “effect of a mutation on the interaction” value was “disrupting interaction”.
S69D was tested, and the “effect of a mutation on the interaction” value was “disrupting interaction”.
For V76D, the “effect of a mutation on the interaction” value was “disrupting interaction”.
M77E was tested, and the “effect of a mutation on the interaction” value was “disrupting interaction”.
In the case of R78L, the “effect of a mutation on the interaction” value is reported as “disrupting interaction”.
